Experimental data reported in patent publication US9677053B2, “Laccases for bio-bleaching” (BASF ENZYMES LLC, priority 2006, dated 2017).

Assays:
[1] = mediator ability to delignify pulp
[2] = TEMPO oxidation, oxygen consumption (OXYTHERM); type: biochemical; conditions: 1 mM TEMPO, pH 8, 22° C., culture supernatant
Experimental: Briefly, 50 μL of test culture supernatants isolated as described in Example 2 was incubated with 950 uL TEMPO (1 mM in Britton-Robinson Buffer at pH 8) at 22° C. in an OXYTHERM™ oxygen measurement instrument (Hansatech, England). Oxygen consumption was measured over time according to the manufacturer's instructions.

[3] = pHopt for oxidation of Mediator 71; type: biochemical; conditions: 1 mM Mediator 71, pH 5-10, room temperature, 20 min
Experimental: Next, the pHopt for the catalysis of the oxidation of Mediator 71 was determined for each laccase. […] of BD22449 or BD22865 culture supernatant isolated as described in Example 2 was incubated with […] Mediator 71 dissolved in Britton-Robinson Buffer to a final concentration of 1 mM at pH 5, 6, 7, 8, 9, or 10. The consumption of oxygen over 20 min at room temperature was determined in an OXYTHERM™ oxygen measurement instrument over time as described above. […] By contrast, the Trametes laccase had no activity on Mediator 71 at pH 7 or above.

[4] = delignification of wood pulp with laccase and mediator, handsheet brightness; conditions: with Mediator 71 (50 mg per 1 gram softwood pulp), borate buffer pH 8, 22° C., then NaOH/H2O2 extraction at 75° C.
Experimental: Laccases BD22449 and BD22865, identified and characterized in Examples 1-5 above were assayed for wood pulp delignification with Mediator 71. Briefly, 1 gram of softwood pulp was treated with 3 mL of BD22449 or BD22865 culture supernatant isolated as described in Example 2 with 50 mg of Mediator 71 at 5% consistency in borate buffer pH 8 at 22° C. Laccase/mediator treatment was followed by extraction stage with 2.5% NaOH, 2% H2O2 at 75° C. Handsheets were made out of the treated pulp and brightness increase due to the laccase/mediator treatment was measured using Brightmeter Micro S-5 (Technidyne Corp. New Albany, Ind., USA). Brightness increase obtained with BD22449 and BD22865 with Mediator 71 was −30% (data not shown).

[5] = HBT oxidation, oxygen consumption; type: biochemical; conditions: 1 mM HBT, pH 8, 22° C.
Experimental: (§1) The ability of BD22865 (SEQ ID NO: 4) to oxidize mediators with higher redox potentials such as violuric acid and 1-hydroxybenzotriazole (HBT) at pH 8 at room temperature was also tested. Briefly, 50 μL of BD22865 culture supernatant isolated as described in Example 2 was incubated with 950 μL violuric acid (1 mM in Britton-Robinson Buffer at pH 8) or HBT (1 mM in Britton-Robinson Buffer) at pH 8 at 22° C. in an OXYTHERM™ oxygen measurement instrument. Oxygen consumption was measured as described above. SEQ ID NO:4 (BD22865) was able to oxidize both violuric acid and HBT with oxygen consumption rates of 150 nmol/min/mg and 100 nmol/min/mg, respectively under the conditions described herein.

[6] = oxidation of Mediator 71 at pH 8, oxygen electrode; type: biochemical; conditions: for specific activity, oxidation of Mediator 71: 1 mM Mediator 71, pH 8, room temperature, laccase preparation, not purified protein
Experimental: BD22449 (SEQ ID NO:2), BD22865 (SEQ ID NO:4) and Trametes versicolor laccase (used as a control) were assayed for their ability to oxidize Mediator 71 at pH 8 using oxygen electrode. Briefly, 50 μL of BD22449 or BD22865 culture supernatant isolated as described in Example 2 was incubated with 950 μL Mediator 71 dissolved in Britton-Robinson Buffer to a final concentration of 1 mM at pH 8. The consumption of oxygen was measured at room temperature in an OXYTHERM™ oxygen measurement instrument over time as described above.

[7] = violuric acid oxidation, oxygen consumption; type: biochemical; conditions: 1 mM violuric acid, pH 8, 22° C.
Experimental: as §1

[8] = thermotolerance, residual activity on ABTS; type: biochemical; conditions: 1 hour
Experimental: Laccases BD22449 and BD22865, identified and characterized in Examples 1-5 above were assayed for thermotolerance. Briefly, each laccases was tested at 50° C., 60° C. and 70° C. for 0-60 minutes wherein the residual activity on ABTS was measured. Supernatants from the Aspergillus cultures expressing BD22449 (SEQ ID NO:2) and BD22865 (SEQ ID NO:4) were isolated as described in Example 2. Supernatants were incubated at 50° C., 60° C. or 70° C. for 1 min, 5 min, 10 min, 30 min, and 60 min. For each time point, the oxidation of 2, 2′-azino-bis(3-ethylbenzthiazoline-6-sulfonic acid) (ABTS) by the laccase was measured using an OXYTHERM™ oxygen measurement instrument.

brightness increase of handsheets [4] [%]	Molecule	ability to delignify pulp [1]	efficiency among mediators ([1]; pH 5 and pH 8)	TEMPO oxidation, oxygen consumption rate [2]	pH of optimum oxidation of Mediator 71 [3]	HBT oxidation, oxygen consumption rate [5] [nmol/min/mg]	specific activity, oxidation of Mediator 71 [6] [nmol/min/mg]	specific activity on Mediator 71 compared to BD22449 ([6]; pH 8)	violuric acid oxidation, oxygen consumption rate [7] [nmol/min/mg]	activity remaining after an hour at 60° C. [8]
–	CNC(=O)N(O)c1cccc(C(F)(F)F)c1 [Mediator 71, 3-(3′-Trifluoromethylphenyl)-3-hydroxy-1-methylurea]	capable of delignifying pulp	most efficient	–	–	–	–	–	–	–
−30	BD22865: laccase from Fusarium verticillioides, SEQ ID NO: 4, expressed in Aspergillus niger, tested as culture supernatant (protein, Fusarium verticillioides) MALIERVWHACVSIVAWLTMWPTSPSTSYQHPLRPNHPHTHIEDPSPGFPIFHPPPGDHEFLCEYPEMTGFVQCSIPENRECWLRHPDGREFNIHTNYENFAPKGIMRHYTLNITESWYNADGQNFTEAKLFNGEYPGPWLEACWGDTFNITVINSMKRNGTSIHWHGIRQNQTMDMDGVNGITQCPIAPGDSFSYIFNTTQYGTSWYHSHYSVQYADGLQGPITIHGPQSAPYDATKRPLLMTDWSHESAFRLLFPGSQFSNKTILLNGAGNVSHYGYTPTLPIPDNYELYFNKTPTDKPTRPKRYLLRLINTSFDSTLVFSIDNHWLQIVTSDFVPIEPYFNTSVLIGIGQRYNVIVEANPLGGDVNEIPDDGNFWIRTWVADACGIAPGGEGYEKTGILRYNHSDKALPSSQPWVNISKACSDETYTSLRPKIPWYIGPAANAQNGERFNVTFDPNAKNTPEFQEEYPVATFGLQRPGQNFRPLQINYSDPVMFHLDEPRDTYPPKWVVIPEDYTEKEWVYFVLTIEGISARTGAHPIHLHGHDFALLQQEENQTYDPSRLNLKLDNPPRRDVVLLPRNGFVVIAFKADNPGIWLMHCHIARHASEGLAMQVLERQGDSNKLFPVGSPNMIEAERVCKVWETWMDGEKDFFEGDSGI	–	–	250 nmol/min/mg	8	100	1350	about twice the specific activity	150	about 40%
−30	BD22449: laccase from Cochiobolus heterostrophus, SEQ ID NO: 2, expressed in Aspergillus niger, tested as culture supernatant (protein, listed as Cochliobolus heterostrophus) MVSSISRVVTALGLLLPTVTSSVVPHKSLAPRTPEVPWKNTGLFSGHSKRQGYETACNHGPESRGCWIDDFNIDTDMDVEWPDTGKTVKYHLTITNTTGAPDGFERPMFLINGQYPGPTITADWGDVLEITVTNGLENNGTGIHWHGLRQLGTNEQDGVNGITECPIAPGDSKLYRFKATQYGTTWYHSHYSVQYGDGIVGPLIIKGPSTANYDIDLGAFPMTDWFHATTFTVNAAAVHANGPPTADNVLVNGSMTSSFGGKYAETILTPGKSHLLRLMNVGINNYLHVGLDGHQFQVISADFTPIEPFYTDSLVLAVGQRYEVIINATEAVGNYWLRVGTGGNCDGPNANAANIRSIFRYAGAPTEDPDTTGSLPSGCYDEDVVPYAKTTVPQEMPEQLSVGFNPNWTSDVTQNQGLVQWLVNGNPMAVDLEVPTLQSVLDGNVTYGNNRHVFAVDEKHQWQYWVIQQNSSNPPLPHPIHLHGHDFYVLAQVENAVWNGDISTLKTDNPIRRDTADLPAGGYLVLAFESDNPGAWLMHCHIPFHVAAGLGVQFLERESEIKAQDGYAEMHRTCANWQSWRYKYHPNGILFPGDSGLRRRN	–	–	did not show TEMPO oxidation	8	–	677	–	–	approximately 100%
